Laboratory results reported in publication PMC2139831 (The Journal of Cell Biology, 1997).
Residue numbers refer to the chain shown, from its start.

B1: Chs3p^Δ700 (domain or fragment, S. cerevisiae, UniProt P29465 1-700, looked up)
chain: MTGLNGDDPDDYYLNLNQDEESLLRSRHSVGSGAPHRQGSLVRPERSRLNNPDNPHFYYAQKTQEQMNHLDVLPSSTGVNPNATRRSGSLRSKGSVRSKFSGRETDSYLLQDMNTTDKKASVKISDEGVAEDEFDKDGDVDNFEESSTQPINKSIKPLRKETNDTLSFWQMYCYFITFWAPAPILAFCGMPKKERQMAWREKVALISVILYIGAIVAFLTFGFTKTVCSSSKLRLKNNEVSTEFVVINGKAYELDTSSRSGIQDVEVDSDTLYGPWSDAGKDASFLFQNVNGNCHNLITPKSNSSIPHDDDNNLAWYFPCKLKNQDGSSKPNFTVENYAGWNCHTSKEDRDAFYGLKSKADVYFTWDGIKNSSRNLIVYNGDVLDLDLLDWLEKDDVDYPVVFDDLKTSNLQGYDLSLVLSNGHERKIARCLSEIIKVGEVDSKTVGCIASDVVLYVSLVFILSVVIIKFIIACYFRWTVARKQGAYIVDNKTMDKHTNDIEDWSNNIQTKAPLKEVDPHLRPKKYSKKSLGHKRASTFDLLKKHSSKMFQFNESVIDLDTSMSSSLQSSGSYRGMTTMTTQNAWKLSNENKAVHSRNPSTLLPTSSMFWNKATSSPVPGSSLIQSLDSTIIHPDIVQQPPLDFMPYGFPLIHTICFVTCYSEDEEGLRTTLDSLSTTDYPNSHKLLMVVCDGLIKGSGN

Key:
Test in all cases: two-hybrid
[1] = molecular target: Chs4p^C693S (S. cerevisiae) (UniProt P34226)
[2] = molecular target: Chs4p (S. cerevisiae) (UniProt P34226)
[3] = molecular target: Cdc10p (S. cerevisiae) (UniProt P25342)
[4] = molecular target: the molecule itself
[5] = molecular target: T1, Chs4p^C693S (S. cerevisiae, UniProt P34226 1-696, C693S)
T1 sequence (looked up): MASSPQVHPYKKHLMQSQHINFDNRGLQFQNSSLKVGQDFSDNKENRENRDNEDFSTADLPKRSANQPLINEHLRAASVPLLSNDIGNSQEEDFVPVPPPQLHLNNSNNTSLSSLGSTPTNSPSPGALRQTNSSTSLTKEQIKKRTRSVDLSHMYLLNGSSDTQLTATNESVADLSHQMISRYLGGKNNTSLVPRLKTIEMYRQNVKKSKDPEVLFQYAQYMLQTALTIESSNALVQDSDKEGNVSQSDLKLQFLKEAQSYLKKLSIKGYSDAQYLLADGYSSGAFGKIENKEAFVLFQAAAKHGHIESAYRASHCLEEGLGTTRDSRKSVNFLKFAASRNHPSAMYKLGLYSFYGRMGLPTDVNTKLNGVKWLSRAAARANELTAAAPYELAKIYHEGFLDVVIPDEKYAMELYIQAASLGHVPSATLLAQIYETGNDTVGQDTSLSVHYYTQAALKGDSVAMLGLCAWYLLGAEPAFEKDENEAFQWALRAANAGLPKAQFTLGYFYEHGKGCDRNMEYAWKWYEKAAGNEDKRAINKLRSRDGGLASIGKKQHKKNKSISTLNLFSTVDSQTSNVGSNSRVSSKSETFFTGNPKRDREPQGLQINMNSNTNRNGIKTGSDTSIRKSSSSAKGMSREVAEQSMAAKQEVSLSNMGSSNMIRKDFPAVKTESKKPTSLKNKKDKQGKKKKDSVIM

[6] = molecular target: T2, Chs4p (S. cerevisiae, UniProt P34226 1-696)
T2 sequence (looked up): T1 sequence (looked up) with S693C

Chain of Cdc10p (S. cerevisiae) (P25342 whole entry): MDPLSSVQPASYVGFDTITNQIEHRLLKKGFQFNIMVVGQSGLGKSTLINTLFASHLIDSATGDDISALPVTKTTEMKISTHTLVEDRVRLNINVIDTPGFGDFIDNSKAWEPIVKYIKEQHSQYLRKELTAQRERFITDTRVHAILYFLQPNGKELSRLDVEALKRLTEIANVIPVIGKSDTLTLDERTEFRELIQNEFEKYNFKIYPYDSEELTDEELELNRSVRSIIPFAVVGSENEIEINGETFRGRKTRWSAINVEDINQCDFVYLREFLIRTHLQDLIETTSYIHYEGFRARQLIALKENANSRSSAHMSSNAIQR

Molecule	units of β-galactosidase activity (units of β-galactosidase activity) [1]	units of β-galactosidase activity (units of β-galactosidase activity) [2]	units of β-galactosidase activity (units of β-galactosidase activity) [3]	units of β-galactosidase activity [4]	units of β-galactosidase activity [5]	units of β-galactosidase activity [6]
Bni4pE (from UniProt P53858 65-730) (domain or fragment)	2220	238	1010	–	–	–
B1	–	–	–	123 units of β-galactosidase activity	568 units of β-galactosidase activity	617 units of β-galactosidase activity
